Measured values taken from the RNAGym collection of RNA variant scans (doi:10.7554/elife.80360).

B1: CPEB3 Ribozyme (parent)
chain: GGGGGCCACAGCAGAAGCGUUCACGUCGCGGCCCCUGUCAGAUUCUGGUGAAUCUGCGAAUUCUGCUGU

Variants of: B1
Test: self-cleavage, relative activity (ratio to wild type); higher = more cleavage; co-transcriptional

Variant	self-cleavage
C35U U36C	0.941
C35U U36G	0.237
C35U U38A	0.901
C35U U38C	0.876
C35U U38G	0.184
C35U U43A	0.818
C35U U43C	0.866
C35U U44A	0.889
C35U U44C	0.919
C35U U46A	0.907
C35U U46C	0.976
C35U U46G	0.967
C35U U49C	0.956
C35U U49G	0.909
C35U U53A	0.833
C35U U55C	0.699
C35U U55G	0.653
C35U U61A	0.596
C35U U61G	0.854
C35U U62A	0.813
C35U U62G	0.804
C35U U64A	0.83
C35U U64C	0.836
C35U U67C	0.979

Variant	self-cleavage
C35U U67G	1.03
C35U U69C	1.08
C35U U69G	1.01
U36A A40C	0.223
U36A A40G	0.248
U36A A42C	0.191
U36A A42U	0.242
U36A A51C	0.242
U36A A51U	0.306
U36A A52G	0.178
U36A A52U	0.166
U36A A59C	0.157
U36A A59G	0.263
U36A A60C	0.19
U36A A60G	0.269
U36A A60U	0.242
U36A C39A	0.233
U36A C45A	0.158
U36A C45G	0.282
U36A C54U	0.35
U36A C57A	0.213
U36A C57G	0.231
U36A C57U	0.233
U36A C63G	0.213

Variant	self-cleavage
U36A C63U	0.185
U36A C66A	0.294
U36A C66U	0.187
U36A G41C	0.22
U36A G41U	0.251
U36A G47A	0.295
U36A G47C	0.269
U36A G47U	0.321
U36A G48C	0.291
U36A G48U	0.311
U36A G50A	0.213
U36A G50C	0.249
U36A G56C	0.201
U36A G56U	0.177
U36A G58C	0.226
U36A G58U	0.253
U36A G65C	0.31
U36A G65U	0.203
U36A G68A	0.317
U36A G68C	0.227
U36A U38A	0.25
U36A U38C	0.216
U36A U38G	0.185
U36A U43A	0.249

Variant	self-cleavage
U36A U43G	0.214
U36A U44C	0.295
U36A U46A	0.164
U36A U46G	0.255
U36A U49A	0.263
U36A U49G	0.225
U36A U53A	0.282
U36A U53G	0.286
U36A U55A	0.209
U36A U55C	0.181
U36A U55G	0.289
U36A U61C	0.171
U36A U62A	0.218
U36A U62G	0.249
U36A U64A	0.232
U36A U64G	0.202
U36A U67A	0.246
U36A U67C	0.215
U36A U67G	0.181
U36A U69A	0.377
U36A U69C	0.558
U36C A40C	0.506
U36C A40G	0.858
U36C A40U	0.64

Variant	self-cleavage
U36C A42C	0.732
U36C A42G	0.77
U36C A42U	0.869
U36C A51C	0.88
U36C A51U	0.879
U36C A52C	0.997
U36C A52U	0.915
U36C A59C	0.42
U36C A59G	0.962
U36C A59U	0.448
U36C A60C	0.268
U36C A60G	0.636
U36C A60U	0.376
U36C C39G	0.847
U36C C45A	0.865
U36C C45G	0.866
U36C C54A	0.736
U36C C54G	0.765
U36C C54U	0.973
U36C C57A	0.251
U36C C57G	0.3
U36C C63A	0.587
U36C C63G	0.548
U36C C66A	0.603

Variant	self-cleavage
U36C C66G	0.621
U36C G37C	0.237
U36C G37U	0.287
U36C G41A	0.507
U36C G41C	0.552
U36C G41U	0.664
U36C G47A	0.953
U36C G47C	0.993
U36C G47U	0.892
U36C G48A	0.94
U36C G48C	0.948
U36C G48U	0.981
U36C G50C	0.895
U36C G56A	0.814
U36C G56C	0.46
U36C G56U	0.696
U36C G58U	0.963
U36C G65A	0.67
U36C G65C	0.414
U36C G68A	0.932
U36C G68C	0.991
U36C U38G	0.244
U36C U43A	0.787
U36C U43C	0.856

Variant	self-cleavage
U36C U44A	0.854
U36C U44C	0.688
U36C U44G	0.859
U36C U46A	0.922
U36C U46C	0.987
U36C U49A	0.923
U36C U49C	0.863
U36C U49G	0.848
U36C U53A	0.767
U36C U53C	0.806
U36C U53G	0.544
U36C U61A	0.557
U36C U61C	0.524
U36C U62A	0.654
U36C U62G	0.581
U36C U64C	0.823
U36C U64G	0.762
U36C U67G	0.949
U36C U69C	1.05
U36C U69G	1.02
U36G A40C	0.236
U36G A40G	0.219
U36G A42G	0.225
U36G A52C	0.318

Variant	self-cleavage
U36G A52G	0.296
U36G A52U	0.271
U36G A59C	0.182
U36G A59G	0.238
U36G A59U	0.189
U36G A60U	0.181
U36G C39A	0.204
U36G C39G	0.24
U36G C39U	0.218
U36G C45A	0.276
U36G C45G	0.251
U36G C54U	0.293
U36G C57G	0.109
U36G C63G	0.181
U36G C63U	0.315
U36G C66A	0.232
U36G C66G	0.167
U36G C66U	0.22
U36G G37A	0.198
U36G G37C	0.22
U36G G37U	0.199
U36G G41A	0.144
U36G G41C	0.278
U36G G41U	0.373

Variant	self-cleavage
U36G G47A	0.252
U36G G47C	0.293
U36G G48A	0.236
U36G G48C	0.266
U36G G50U	0.306
U36G G56A	0.246
U36G G56U	0.19
U36G G58A	0.24
U36G G58C	0.277
U36G G65A	0.207
U36G G65C	0.25
U36G U38C	0.248
U36G U38G	0.2
U36G U43A	0.26
U36G U43C	0.268
U36G U43G	0.231
U36G U44A	0.246
U36G U44G	0.219
U36G U46C	0.21
U36G U49C	0.146
U36G U53C	0.267
U36G U55A	0.238
U36G U61A	0.341
U36G U62C	0.21

Variant	self-cleavage
U36G U64C	0.188
U36G U64G	0.195
U36G U67A	0.0785
U36G U67C	0.239
U36G U69A	0.297
G37A	0.32
G37A A40C	0.261
G37A A40G	0.334
G37A A40U	0.244
G37A A42C	0.293
G37A A42U	0.275
G37A A51U	0.285
G37A A52G	0.268
G37A A52U	0.273
G37A A59C	0.213
G37A A59G	0.36
G37A A60G	0.209
G37A C39A	0.236
G37A C39U	0.372
G37A C45G	0.281
G37A C45U	0.351
G37A C54A	0.235
G37A C54U	0.417
G37A C57A	0.217

Variant	self-cleavage
G37A C57G	0.241
G37A C57U	0.247
G37A C63A	0.228
G37A C63U	0.364
G37A C66U	0.263
G37A G41A	0.231
G37A G41C	0.192
G37A G47A	0.312
G37A G47C	0.308
G37A G47U	0.36
G37A G48U	0.251
G37A G50C	0.215
G37A G50U	0.28
G37A G56C	0.232
G37A G58C	0.344
G37A G65A	0.252
G37A G65C	0.258
G37A G65U	0.325
G37A G68A	0.377
G37A G68U	0.385
G37A U38A	0.291
G37A U38C	0.34
G37A U38G	0.251
G37A U43A	0.261

Variant	self-cleavage
G37A U43C	0.261
G37A U43G	0.359
G37A U44C	0.326
G37A U44G	0.223
G37A U46A	0.375
G37A U46C	0.338
G37A U46G	0.281
G37A U49G	0.37
G37A U53C	0.231
G37A U55A	0.275
G37A U55C	0.216
G37A U61A	0.202
G37A U62A	0.225
G37A U62C	0.321
G37A U64A	0.246
G37A U64G	0.254
G37A U67A	0.389
G37A U69C	0.498
G37C	0.241
G37C A40C	0.242
G37C A40G	0.181
G37C A40U	0.267
G37C A42U	0.234
G37C A51C	0.251

Variant	self-cleavage
G37C A51U	0.171
G37C A52C	0.216
G37C A52G	0.264
G37C A59C	0.183
G37C A59G	0.234
G37C A60C	0.236
G37C A60U	0.306
G37C C39A	0.215
G37C C39G	0.167
G37C C39U	0.268
G37C C45A	0.168
G37C C45U	0.203
G37C C54A	0.201
G37C C54U	0.25
G37C C57A	0.242
G37C C57G	0.189
G37C C57U	0.192
G37C C63A	0.261
G37C C63G	0.25
G37C C63U	0.281
G37C C66A	0.222
G37C C66G	0.177
G37C C66U	0.246
G37C G41U	0.201

Variant	self-cleavage
G37C G47A	0.189
G37C G47U	0.209
G37C G48A	0.182
G37C G48U	0.288
G37C G50A	0.257
G37C G50C	0.265
G37C G50U	0.188
G37C G56A	0.205
G37C G56U	0.237
G37C G58A	0.242
G37C G58C	0.277
G37C G58U	0.353
G37C G65A	0.246
G37C G65U	0.237
G37C G68A	0.304
G37C G68C	0.245
G37C G68U	0.245
G37C U38A	0.246
G37C U38C	0.201
G37C U43A	0.264
G37C U43C	0.203
G37C U44C	0.187
